Columns and labels:
[1] = molecular target: T1, equine alcohol dehydrogenase (ADH) (Equus caballus, UniProt P00327); assay: αB crystallin protein pin array with alcohol dehydrogenase; type: binding; conditions: ADH as ligand in the pin array
T1 construct: purchased Sigma-Aldrich, MO 05646
From the text: (§1) Synthesis of Pins, binding and detection of peptides binding to ligand proteins. The αB crystallin protein pin array was used to measure the interaction between peptides and chaperone target proteins including bovine βH crystallin, human γD crystallin, equine alcohol dehydrogenase (ADH) and porcine citrate synthase (CS) as described (FIG. 12). Ghosh and Clark, Protein Sci 14: 684-95, 2005.
(§2) Refer to the methods section for detailed protocols. The absorbance corresponding to the blue coloration in each well was measured at λ=450 nm and plotted against the amino acid sequence of the corresponding peptide in that well (FIGS. 13 and 14). Wells containing peptides that have strong interactions with target proteins are dark blue and wells containing peptides that have weak or no interaction with target proteins are light blue or clear.
(§3) The purity of the target proteins used in the pin array assays, bovine βH crystallin, human γD crystallin, equine alcohol dehydrogenase (ADH) and porcine citrate synthase (CS) were determined to be >90% by SDS-PAGE. In addition, primary antibodies for each target protein were specific to that target protein and consequently contaminating proteins that may bind to the peptides will not be detected. Eighty-four sequential and overlapping peptide fragments corresponding to residues 1-175 of human αB crystallin were synthesized employing a simultaneous peptide synthesis strategy developed by Geysen, called Multipin Peptide Synthesis (Mimotopes, San Diego, Calif.). Geysen, Southeast Asian J Trop Med Public Health 21: 523-33, 1990; Chin et al., J Org Chem 62: 538-539, 1997. Peptides were immobilized on derivatized polyethylene pins arranged in a microtiter ELISA plate format. Each peptide was eight amino acids in length and consecutive peptides were offset by two amino acids. All peptides were bound covalently to the surface of the plastic pins. The first peptide was 1MDIAIHHP8 and the last peptide was 168PAVTAAPK175 for human αB crystallin.
(§4) Ghosh and Clark, Protein Sci 14: 684-95, 2005. […] The intensity of the blue color in the wells was measured at 450 nm using an ELISA plate-reader (BioTek, Winooski, Vt.). The intensity of the blue color (plotted on the X-axis) was a measure of the interaction between αB crystallin peptides (plotted on the Y-axis) and target proteins. To measure the effect of temperature on the interactions between interactive peptides and the target proteins, the target proteins were heated in a water-bath at 45° C. for fifteen minutes prior to use. Pin arrays are unable to differentiate between monomers, dimers or oligomers of target proteins that exist in solution. Instead, pin arrays are very sensitive detectors of interactions between individual peptides and the entire population (monomers, dimers or oligomers) of specific target proteins that may exist in solution under specific conditions. Each target protein was assayed two to five times. A single pin array was used for all experiments and no change in interactions was observed after more than thirty repetitions. The last three peptides of the protein pin array, 163REEKPAVT170, 165EKPAVTAA172, 167PAVTAAPK174, correspond to the epitope (163REEKPAVTAAPKK175) recognized by the primary antibody for human αB crystallin. A positive reaction is observed for these three peptides in the absence of human αB crystallin as the ligand due to direct binding of the anti-human αB crystallin antibody to these three peptides. The loss of efficiency for the pin array was measured using this assay. The loss of efficiency for the pin array was determined to be <5% by after more than 30 assays.
The pattern of absorbance at k=450 nm when αB crystallin peptides were assayed with unheated and pre-heated ADH was similar to the absorbance pattern obtained with unheated and pre-heated βH/γD crystallin (FIG. 17). […]

[2] = molecular target: T2, human γD crystallin (Homo sapiens, UniProt P07320); assay: αB crystallin protein pin array with γD crystallin; type: binding; conditions: unheated γD crystallin; similar maxima pre-heated 45° C.
T2 construct: made in house
T2 sequence (P07320 1-174): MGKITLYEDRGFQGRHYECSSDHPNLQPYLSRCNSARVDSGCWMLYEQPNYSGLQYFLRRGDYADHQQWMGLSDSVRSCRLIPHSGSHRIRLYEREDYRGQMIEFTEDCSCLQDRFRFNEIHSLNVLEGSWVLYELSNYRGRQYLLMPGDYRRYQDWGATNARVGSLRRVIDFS
From the text: as §1, §2, §3, §4
When βH crystallin was replaced with γD crystallin, a native protein constituent of lens cytoplasm from the same gene family as the β crystallins, as the ligand in the pin array, twelve interactive sequences were identified (FIG. 14: striped bars). […]

T1 sequence (P00327 whole entry): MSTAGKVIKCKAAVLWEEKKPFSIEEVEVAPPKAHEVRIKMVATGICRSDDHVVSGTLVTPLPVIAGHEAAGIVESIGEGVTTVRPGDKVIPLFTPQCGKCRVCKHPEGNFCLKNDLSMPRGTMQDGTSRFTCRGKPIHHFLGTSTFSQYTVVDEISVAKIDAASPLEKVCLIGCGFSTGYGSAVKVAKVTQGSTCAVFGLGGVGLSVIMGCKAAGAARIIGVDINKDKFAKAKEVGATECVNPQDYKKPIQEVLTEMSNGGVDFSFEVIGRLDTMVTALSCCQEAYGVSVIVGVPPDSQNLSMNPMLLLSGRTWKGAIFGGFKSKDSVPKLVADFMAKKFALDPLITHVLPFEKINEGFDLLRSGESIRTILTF

| absorbance at 450 nm, interaction with ADH [1] | absorbance at 450 nm, interaction with γD crystallin [2] | Sequence |
| --- | --- | --- |
| Maximum absorbances | maximum absorbances | FSVNLDVK [Peptide 38] |
| Maximum absorbances | maximum absorbances | WIRRPFFP [Peptide 5] |
| Maximum absorbances | maximum absorbances | LTITSSLS [Peptide 66] |

Reference: US20070185028A1, “Compositions and methods for treatment of protein misfolding and protein aggregation diseases” (priority 2004, published 2007)
